Among the data in article PMC10397247 are interaction score values, retold here.

The target in one test is T1, 4H496-bA.
T1 chain: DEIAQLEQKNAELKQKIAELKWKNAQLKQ
Description: two-hybrid library CCNG1.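 Note: natural log of median RNA to DNA barcode read ratio; higher means stronger binding.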

For another test, the target named is T2, APC8191-AA.
T2 chain: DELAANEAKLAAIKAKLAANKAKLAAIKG
Description: two-hybrid library CCmax.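 Note: natural log of median RNA to DNA barcode read ratio; higher means stronger binding.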 As to conditions: mean of both orientations.

For the next test, the target named is T3, APC1015-AA.
T3 chain: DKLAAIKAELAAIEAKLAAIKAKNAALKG
Description: two-hybrid library CCmax.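 Note: natural log of median RNA to DNA barcode read ratio; higher means stronger binding.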 As to conditions: mean of both orientations.

A further test deals with T4, APC9319-AA.
T4 chain: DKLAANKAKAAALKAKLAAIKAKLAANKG
Description: two-hybrid library CCmax.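 Note: natural log of median RNA to DNA barcode read ratio; higher means stronger binding.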 As to conditions: mean of both orientations.

A further test addresses T5, APC6108-AA.
T5 chain: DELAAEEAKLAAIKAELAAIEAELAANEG
Description: two-hybrid library CCmax.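 Note: natural log of median RNA to DNA barcode read ratio; higher means stronger binding.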 As to conditions: mean of both orientations.

In the next test the target is T6, APC3645-AA.
T6 chain: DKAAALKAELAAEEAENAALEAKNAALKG
Description: two-hybrid library CCmax.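 Note: natural log of median RNA to DNA barcode read ratio; higher means stronger binding.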 As to conditions: mean of both orientations.

A further test has as its target T7, APC2237-AA.
T7 chain: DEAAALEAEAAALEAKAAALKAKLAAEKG
Description: two-hybrid library CCmax. As to conditions: mean of both orientations.

A further test has as its target T8, APC232-AA.
T8 chain: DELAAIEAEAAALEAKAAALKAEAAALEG
Description: two-hybrid library CCmax. As to conditions: mean of both orientations.

The target of a further test is T9, APC1434-AA.
T9 chain: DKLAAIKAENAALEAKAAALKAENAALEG
Description: two-hybrid library CCmax. As to conditions: mean of both orientations.

The target in a further test is T10, APC7099-AA.
T10 chain: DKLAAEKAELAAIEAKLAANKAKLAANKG
Description: two-hybrid library CCmax. As to conditions: mean of both orientations.

In the next test the target is T11, APC5383-AA.
T11 chain: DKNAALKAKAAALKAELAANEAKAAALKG
Description: two-hybrid library CCmax. As to conditions: mean of both orientations.

A further test deals with T12, 4H733-AA.
T12 chain: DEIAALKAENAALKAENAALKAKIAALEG
Description: two-hybrid library CCmax.

Another test addresses T13, APC9096-AA.
T13 chain: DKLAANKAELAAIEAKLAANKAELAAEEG
Description: two-hybrid library CCmax. As to conditions: mean of both orientations.

The next test deals with T14, APC4011-AA.
T14 chain: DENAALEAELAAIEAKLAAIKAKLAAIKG
Description: two-hybrid library CCmax. As to conditions: mean of both orientations.

Another test concerns the target T15, APC4436-AA.
T15 chain: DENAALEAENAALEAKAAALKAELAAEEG
Description: two-hybrid library CCmax. As to conditions: mean of both orientations.

The target of another test is T16, APC2405-AA.
T16 chain: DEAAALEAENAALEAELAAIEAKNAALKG
Description: two-hybrid library CCmax. As to conditions: mean of both orientations.

A further test addresses T17, 4H807-AA.
T17 chain: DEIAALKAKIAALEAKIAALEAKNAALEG
Description: two-hybrid library CCmax. As to conditions: mean of both orientations.

The next test deals with T18, APC8910-AA.
T18 chain: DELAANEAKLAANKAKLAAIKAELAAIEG
Description: two-hybrid library CCmax. As to conditions: mean of both orientations.

A further test has as its target T19, APC4264-AA.
T19 chain: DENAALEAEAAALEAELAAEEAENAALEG
Description: two-hybrid library CCmax. As to conditions: mean of both orientations.

A further test addresses T20, 4H_APH.
T20 chain: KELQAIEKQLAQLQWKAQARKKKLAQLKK
Description: two-hybrid library CCmax. As to conditions: mean of both orientations.

Another test concerns the target T21, 4H3625-AA.
T21 chain: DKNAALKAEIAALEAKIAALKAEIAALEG
Description: two-hybrid library CCmax. As to conditions: mean of both orientations.

For another test, the target named is 4H_GCN4. Description: two-hybrid library CCmax. As to conditions: mean of both orientations.
In another test the target is T22, 4H2888-AA.
T22 chain: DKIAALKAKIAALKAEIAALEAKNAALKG
Description: two-hybrid library CCmax. As to conditions: mean of both orientations.

In the next test the target is T23, O14-AA.
T23 chain: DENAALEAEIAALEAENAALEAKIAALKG
Description: two-hybrid library CCmax. As to conditions: mean of both orientations.

The target in a further test is T24, 4H3590-AA.
T24 chain: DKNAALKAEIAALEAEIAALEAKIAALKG
Description: two-hybrid library CCmax. As to conditions: mean of both orientations.

The next test deals with GCN2_T. Description: two-hybrid library CCmax.
Another test has as its target T25, 4H43-AA.
T25 chain: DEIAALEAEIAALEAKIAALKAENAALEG
Description: two-hybrid library CCmax.

The target in the next test is T26, 4H4038-AA.
T26 chain: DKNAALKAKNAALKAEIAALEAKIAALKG
Description: two-hybrid library CCmax. As to conditions: mean of both orientations.

A further test concerns the target T27, O11-AA.
T27 chain: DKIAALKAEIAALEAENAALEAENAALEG
Description: two-hybrid library CCmax. As to conditions: mean of both orientations.

The target in the next test is T28, 4H_BCR.
T28 chain: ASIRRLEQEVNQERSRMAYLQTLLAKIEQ
Description: two-hybrid library CCmax. As to conditions: mean of both orientations.

The target in another test is T29, 4H3587-AA.
T29 chain: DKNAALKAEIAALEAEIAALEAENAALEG
Description: two-hybrid library CCmax. As to conditions: mean of both orientations.

A further test addresses T30, 4H451-AA.
T30 chain: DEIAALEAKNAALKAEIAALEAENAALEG
Description: two-hybrid library CCmax. As to conditions: mean of both orientations.

In a further test the target is T31, 4H384-AA.
T31 chain: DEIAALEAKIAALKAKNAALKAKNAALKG
Description: two-hybrid library CCmax. As to conditions: mean of both orientations.

The target in a further test is T32, O13-AA.
T32 chain: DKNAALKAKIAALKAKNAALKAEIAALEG
Description: two-hybrid library CCmax. As to conditions: mean of both orientations.

The next test concerns the target T33, 4H510-AA.
T33 chain: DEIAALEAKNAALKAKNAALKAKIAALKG
Description: two-hybrid library CCmax. As to conditions: mean of both orientations.

Another test has as its target T34, 4H3049-AA.
T34 chain: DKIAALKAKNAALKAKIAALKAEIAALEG
Description: two-hybrid library CCmax. As to conditions: mean of both orientations.

The target in another test is T35, 4H337-AA.
T35 chain: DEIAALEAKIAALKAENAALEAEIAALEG
Description: two-hybrid library CCmax. As to conditions: mean of both orientations.

In another test the target is T36, 4H3905-AA.
T36 chain: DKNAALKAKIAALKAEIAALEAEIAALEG
Description: two-hybrid library CCmax. As to conditions: mean of both orientations.

A further test concerns the target T37, 4H2736-AA.
T37 chain: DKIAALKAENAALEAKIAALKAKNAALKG
Description: two-hybrid library CCmax.

Another test has as its target T38, 4H3961-bH.
T38 chain: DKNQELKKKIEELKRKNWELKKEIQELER
Description: two-hybrid library CCNG1. As to conditions: mean of both orientations.

Another test addresses T39, 4H470-bH.
T39 chain: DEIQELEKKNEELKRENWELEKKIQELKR
Description: two-hybrid library CCNG1.

The target of a further test is T40, P9A-bS.
T40 chain: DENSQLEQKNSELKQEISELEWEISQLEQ
Description: two-hybrid library CCNG1.

Another test deals with T41, P8A-bS.
T41 chain: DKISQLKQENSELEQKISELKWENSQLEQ
Description: two-hybrid library CCNG1.

The target of another test is T42, P6A-bS.
T42 chain: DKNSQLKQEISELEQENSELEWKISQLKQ
Description: two-hybrid library CCNG1.

For another test, the target named is T43, P7A-bS.
T43 chain: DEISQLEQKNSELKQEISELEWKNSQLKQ
Description: two-hybrid library CCNG1.

For the next test, the target named is T44, 4H568-bN.
T44 chain: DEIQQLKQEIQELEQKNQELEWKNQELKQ
Description: two-hybrid library CCNG1.

The target of another test is T45, 4H797-bN.
T45 chain: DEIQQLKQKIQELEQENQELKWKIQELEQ
Description: two-hybrid library CCNG1.

For another test, the target named is T46, 4H883-bN.
T46 chain: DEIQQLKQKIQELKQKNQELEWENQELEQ
Description: two-hybrid library CCNG1.

The target of the next test is T47, 4H967-bN.
T47 chain: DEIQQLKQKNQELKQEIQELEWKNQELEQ
Description: two-hybrid library CCNG1.

Another test addresses T48, 4H457-bN.
T48 chain: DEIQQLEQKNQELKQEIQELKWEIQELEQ
Description: two-hybrid library CCNG1.

The target of another test is T49, 4H918-bN.
T49 chain: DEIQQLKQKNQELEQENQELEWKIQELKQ
Description: two-hybrid library CCNG1.

The next test addresses T50, 4H454-bN.
T50 chain: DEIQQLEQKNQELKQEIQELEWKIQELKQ
Description: two-hybrid library CCNG1.

The target in another test is T51, 4H953-bN.
T51 chain: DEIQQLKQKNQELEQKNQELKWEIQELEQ
Description: two-hybrid library CCNG1.

The next test addresses T52, 4H462-bN.
T52 chain: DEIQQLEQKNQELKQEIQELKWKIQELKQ
Description: two-hybrid library CCNG1.

Another test addresses T53, 4H72-bN.
T53 chain: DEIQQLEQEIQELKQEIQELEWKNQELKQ
Description: two-hybrid library CCNG1.

Another test has as its target T54, 4H607-bN.
T54 chain: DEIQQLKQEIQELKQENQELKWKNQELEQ
Description: two-hybrid library CCNG1.

Another test addresses T55, 4H687-bN.
T55 chain: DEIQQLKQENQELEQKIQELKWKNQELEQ
Description: two-hybrid library CCNG1.

The target in a further test is T56, 4H717-bN.
T56 chain: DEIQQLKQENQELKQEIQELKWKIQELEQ
Description: two-hybrid library CCNG1.

For another test, the target named is T57, 4H4001-bN.
T57 chain: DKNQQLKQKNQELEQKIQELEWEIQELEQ
Description: two-hybrid library CCNG1.

The target in a further test is T58, 4H754-bN.
T58 chain: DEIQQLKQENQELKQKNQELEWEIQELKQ
Description: two-hybrid library CCNG1.

The target in a further test is T59, 4H908-bN.
T59 chain: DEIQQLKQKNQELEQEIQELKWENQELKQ
Description: two-hybrid library CCNG1.

Chain of 4H_GCN4 (chain, as listed by the source): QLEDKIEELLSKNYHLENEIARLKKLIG

Regarding DEIAQLEQKNAELKQKIAELKWKNAQLKQ [4H496-bA], the interaction score with 4H496-bA was -0.521.
As to DEIAALKAENAALKAENAALKAKIAALEG [4H733-AA], the interaction score is -1.19 with APC8191-AA; -1.46 with APC1015-AA; -2.02 with APC9319-AA; -1.39 with APC6108-AA; -1.25 in the test with APC3645-AA; -1.41 with APC2237-AA. Besides, the interaction score was -1.82 with APC232-AA; -1.75 in the test with APC1434-AA; -1.67 in the test with APC7099-AA; -2.26 in the test with APC5383-AA; 2.16 with 4H733-AA; -1.46 in the test with APC9096-AA. Also, the interaction score with APC4011-AA was -1.54; with APC4436-AA it was -1.66; in the test with APC2405-AA it was -1.28; with 4H807-AA, -1.53; with APC8910-AA, -1.37; with APC4264-AA it was -1.83.
As to DKIAALKAENAALEAKIAALKAKNAALKG [4H2736-AA], the interaction score with 4H_APH is -1.33; with 4H3625-AA, 0.218; with 4H_GCN4 it was -2.46; with 4H2888-AA, -0.685; with O14-AA it was -0.38; with 4H3590-AA it was -0.712. Moreover, the interaction score with GCN2_T is -0.66; with 4H43-AA it was -0.422; with 4H4038-AA, -0.154; with O11-AA it was -0.615; with 4H_BCR, -1.69; with 4H3587-AA, -1.26. Also, the interaction score is 0.882 with 4H451-AA; -1.67 with 4H384-AA; 0.351 in the test with O13-AA; -1.15 with 4H510-AA; 0.275 with 4H3049-AA; -0.315 in the test with 4H337-AA. Moreover, the interaction score is -1.18 with 4H3905-AA and -1.62 in the test with 4H2736-AA.
For DKNQELKKKIEELKRKNWELKKEIQELER [4H3961-bH], the interaction score is -1.2 in the test with 4H3961-bH and 1.3 with 4H470-bH.
As for DKNSQLKQEISELEQENSELEWKISQLKQ [P6A-bS], the interaction score in the test with P9A-bS was -0.77; in the test with P8A-bS it was 0.0461; in the test with P6A-bS, -2.31; with P7A-bS, 1.24.
Regarding DKNQQLKQKNQELEQKIQELEWEIQELEQ [4H4001-bN], the interaction score with 4H568-bN was -2.33; in the test with 4H797-bN, -1.1; with 4H883-bN, -0.641; with 4H967-bN, -2.32; with 4H457-bN, -0.688; in the test with P6A-bS, -2.58. Besides, the interaction score with 4H918-bN is -0.935; in the test with 4H454-bN, 0.0134; with 4H953-bN it was -1.5; with 4H462-bN it was -0.667; with 4H72-bN it was -1.03; with 4H607-bN it was -1.46. For the same molecule, the interaction score with 4H687-bN is -1.77; with 4H717-bN it was -1.63; in the test with 4H4001-bN, -0.804; with 4H754-bN, -1.75; in the test with 4H908-bN it was -1.27.
